Laboratory results reported in patent US5945329A, “Customized proteases” (Carlsberg A/S, priority 1997, dated 1999).
Peptide text beside a SMILES is read from it. * marks the point of attachment. Bz = O=C(c1ccccc1)*

T1: yeast carboxypeptidase Y (CPD-Y), wild type (SEQ ID NO:32) (Saccharomyces cerevisiae, UniProt P00729)
T1 construct: purchased Carlbiotech, Copenhagen, Denmark
T1 sequence (P00729 112-532): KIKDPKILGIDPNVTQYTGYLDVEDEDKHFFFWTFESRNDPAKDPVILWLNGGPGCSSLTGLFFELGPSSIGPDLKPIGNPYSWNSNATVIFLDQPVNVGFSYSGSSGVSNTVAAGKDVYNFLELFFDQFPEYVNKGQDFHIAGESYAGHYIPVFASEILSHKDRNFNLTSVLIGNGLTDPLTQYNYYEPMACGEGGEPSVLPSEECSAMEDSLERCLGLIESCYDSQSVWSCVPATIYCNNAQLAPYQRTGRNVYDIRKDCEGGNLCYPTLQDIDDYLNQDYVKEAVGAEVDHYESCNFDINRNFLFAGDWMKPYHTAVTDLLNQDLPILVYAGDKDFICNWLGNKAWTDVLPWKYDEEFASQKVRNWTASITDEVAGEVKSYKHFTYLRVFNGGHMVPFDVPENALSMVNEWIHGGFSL

T2: carboxypeptidase Y (CPD-Y) variant N51Q (Asn51 replaced with glutamine) (Saccharomyces cerevisiae, UniProt P00729, N162Q)
T2 construct: made in house; host or cells: S. cerevisiae W2579 (secreted)
T2 sequence (P00729 112-532 N162Q): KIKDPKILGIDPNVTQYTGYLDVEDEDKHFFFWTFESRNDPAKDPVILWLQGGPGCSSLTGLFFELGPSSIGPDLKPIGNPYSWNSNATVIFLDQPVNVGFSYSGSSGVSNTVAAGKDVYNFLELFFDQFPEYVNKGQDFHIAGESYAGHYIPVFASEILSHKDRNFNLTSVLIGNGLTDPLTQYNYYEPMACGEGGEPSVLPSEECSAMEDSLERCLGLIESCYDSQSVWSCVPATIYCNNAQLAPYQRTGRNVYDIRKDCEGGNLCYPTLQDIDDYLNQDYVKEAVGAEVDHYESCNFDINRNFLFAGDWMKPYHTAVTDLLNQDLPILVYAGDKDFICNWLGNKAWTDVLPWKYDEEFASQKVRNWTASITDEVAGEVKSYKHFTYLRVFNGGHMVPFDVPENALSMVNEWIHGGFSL


Legend:
[1] = target: T1, yeast carboxypeptidase Y (CPD-Y), wild type (SEQ ID NO:32); test: Aminolysis of ester/peptide substrates; KN(app) of nucleophile; format: biochemical; conditions: for KN(app): Table III (unit as in Tables I, II), ester substrate; for KN,app (H-Gly-NH2 as nucleophile): substance of the line is the substrate (leaving group phenylalanine or L-β-phenyllactic acid), enzyme not named, taken as CPD-Y
Experimental: (§1) Aminolysis reactions were carried out in the following way. The nucleophile was dissolved in 50 mM Hepes, 5 mM EDTA and pH was adjusted to 7.5. Five (5) μl of substrate (8 mM FA-Ala-OBzl in methanol) was added to 190 μl nucleophile solution followed by 5 μl enzyme, resulting in a substrate concentration of 0.2 mM. For reactions carried out at pH 9.5, Hepes was replaced with Ches. During the reaction, 20 μl aliquots were removed from the reaction mixture and added to 50 μl 1% trifluoroacetic acid to quench the reaction. The reactant composition was determined by HPLC using a Waters HPLC equipped with a C-18 Waters Novapac 4μ reverse phase column and various gradients of acetonitrile in 0.1% trifluoroacetic acid. The separation was monitored at 302 nm allowing the direct quantification of the products from the integrated peak areas. The composition of the reaction mixture was determined at least twice during the reaction, the first time when 20-50% (preferably 35%) of the ester substrate had been consumed in the reaction and the second time when 50-90% (preferably 80%) of the substrate had been consumed. The products were collected and identified by amino acid analysis after acid hydrolysis using a Pharmacia Alpha Plus analyzer.
(§2) Further identification was obtained by co-chromatography of authentic standard compounds. The fraction of aminolysis (fa) was expressed as the ratio between the formed aminolysis product and the sum of all products being formed, i.e., unconsumed substrate was disregarded in the calculations. The KN(app), representing the nucleophile concentration at which fa is half the maximum value (a measure for the dissociation constant of the nucleophile), and famax (the highest possible fa obtained at saturation of the enzyme with nucleophile) were determined by fitting the values of fa obtained at a minimum of seven concentrations of nucleophile to a saturation. The value of fa obtained at the highest possible nucleophile concentration is designated fasat.
(§3) Aminolysis reactions were carried out in the following way. The nucleophile was dissolved in 50 mM HEPES, 5 mM EDTA and pH was adjusted to 7.5, 5 μl substrate (8 mM FA-Ala-OBzl or FA-Ala-Xaa-OH in methanol) was added to 190 μl nucleophile solution followed by 5 μl enzyme diluted in buffer to the appropriate concentration, resulting in a substrate concentration of 0.2 mM. During the reaction, 20 μl aliquots were removed from the reaction mixture and added to 50 μl 1% trifluoroacetic acid to quench the reaction. The reactant composition was determined by HPLC using a Waters HPLC equipped with a C-18 Waters Novapac 4μ reverse phase column and various gradients of acetonitrile in 0.1% trifluoroacetic acid. The separation was monitored at 302 nm allowing the direct quantification of the products from the integrated peak areas. The products were collected and identified by amino acid analysis after acid hydrolysis (Pharmacia Alpha Plus analyzer) and by co-chromatography of authentic standards. The fraction of aminolysis (fa) was expressed as the ratio between the formed aminolysis product and the sum of all products being formed, i.e. unconsumed substrate was disregarded in the calculations. The KN,app (a measure for the dissociation constant of the nucleophile) and famax (the highest possible fa obtained at saturation with nucleophile were determined by fitting the obtained fa values to the equation fa=famax /(1+KN,app /N).

[2] = target: T2, carboxypeptidase Y (CPD-Y) variant N51Q (Asn51 replaced with glutamine); test: Aminolysis; KN(app) of nucleophile; format: biochemical, yeast; conditions: Table V; amino acid nucleophile, FA-Ala-OBzl as substrate, pH 7.5
Experimental: as §1, §2, §3

[3] = target: CBZ-Pro-Leu-OH
[4] = target: CBZ-Gly-Leu-OH
[5] = target: CBZ-Lys-Leu-OH
[6] = target: CBZ-His-Leu-OH
[7] = target: CBZ-Trp-Leu-OH
[8] = target: CBZ-Glu-Leu-OH
[9] = target: CBZ-Ser-Leu-OH
[10] = target: CBZ-Phe-Leu-OH
[11] = substrate: CC(C)[C@H](NC(=O)[C@H](Cc1ccccc1)NC(=O)C=Cc1ccco1)C(=O)O; test: Hydrolysis of FA-Phe-Val-OH; format: biochemical, yeast; conditions: other: hydrolysis of FA-Phe-Val-OH

estimated CPD-Y activity relative to wild type transformants (fold of wild type) [3]	estimated CPD-Y activity relative to wild type transformants (fold of wild type) [4]	estimated CPD-Y activity relative to wild type transformants (fold of wild type) [5]	estimated CPD-Y activity relative to wild type transformants (fold of wild type) [6]	estimated CPD-Y activity relative to wild type transformants (fold of wild type) [7]	estimated CPD-Y activity relative to wild type transformants (fold of wild type) [8]	estimated CPD-Y activity relative to wild type transformants (fold of wild type) [9]	estimated CPD-Y activity relative to wild type transformants (fold of wild type) [10]	Molecule	KN(app) ([1]; amino acid nucleophile)	further results
								NC(=O)CC[C@H](N)C(=O)O [H--Gln--OH, H-Gln-OH]	150 ± 8 mM	
								N[C@@H](Cc1ccccc1)C(=O)O [H--Phe--OH, H-Phe-OH]	9.5 ± 1 mM	Kn,app [2]: 29 ± 1 mM
								N[C@@H](CO)C(=O)O [H--Ser--OH, H-Ser-OH]	310 ± 20 mM	
1.2	0.8	3.6	1.1	1.5	1	1.1	0.9	carboxypeptidase Y mutant 178His/215Pro/216Thr (enzyme)		
1.6	0.8	5.3	1.1	0.9	1.1	0.4	1	carboxypeptidase Y mutant 178Cys/215Thr/216Trp (enzyme)		
0.6	1.1	4	1	1.1	1.4	1.3	1.2	carboxypeptidase Y mutant 178Ala/215Ser/216Arg (enzyme)		
0.5	0.3	4.6	0.8	0.5	0.8	0.3	0.8	carboxypeptidase Y mutant 178Gly/340Ile/341Cys (enzyme)		
								NCC(=O)O [H--Gly--OH, H-Gly-OH]	1500 ± 50 mM	
								C[C@H](N)C(=O)O [H--Ala--OH, H-Ala-OH]	83 ± 7 mM	Kn,app [2]: 250 ± 15 mM; Kn,app ([1]; Table V, amino acid nucleophile, FA-Ala-OBzl as substrate, pH 7.5): 83 ± 7 mM
								O=C(CNC(=O)c1ccccc1)O[C@@H](Cc1ccccc1)C(=O)O [Hippuryl-L-β-Phenyllactic acid]		KN,app (H-Gly-NH2 as nucleophile) [1]: 0.47±0.05
								O=C(CNC(=O)c1ccccc1)N[C@@H](Cc1ccccc1)C(=O)O [Hippuryl-L-Phe-OH] (Bz-Gly-Phe-OH)		KN,app (H-Gly-NH2 as nucleophile) [1]: 0.63±0.06
0.9	0.7	4.4	1.3	2	2	0.7	2.8	carboxypeptidase Y mutant 178Asn/215Ala/216Gly (enzyme)		
1.2	0.8	3.1	1.1	1.7	1.2	1	0.9	carboxypeptidase Y mutant 178His/215Thr/216Phe (enzyme)		
								N[C@@H](Cc1c[nH]cn1)C(=O)O [H--His--OH, H-His-OH]	87 ± 9 mM	
0.3	0.9	6.9	1.7	1	1.1	0.5		carboxypeptidase Y mutant 178Cys (enzyme)		
								NCCCC[C@H](N)C(=O)O [H--Lys--OH, H-Lys-OH]	190 ± 30 mM	
								carboxypeptidase Y (CPD-Y) variant N51Q (Asn51 replaced with glutamine) (Saccharomyces cerevisiae S288C; N162Q) (protein, made in house; host or cells: S. cerevisiae W2579 (secreted)) KIKDPKILGIDPNVTQYTGYLDVEDEDKHFFFWTFESRNDPAKDPVILWLQGGPGCSSLTGLFFELGPSSIGPDLKPIGNPYSWNSNATVIFLDQPVNVGFSYSGSSGVSNTVAAGKDVYNFLELFFDQFPEYVNKGQDFHIAGESYAGHYIPVFASEILSHKDRNFNLTSVLIGNGLTDPLTQYNYYEPMACGEGGEPSVLPSEECSAMEDSLERCLGLIESCYDSQSVWSCVPATIYCNNAQLAPYQRTGRNVYDIRKDCEGGNLCYPTLQDIDDYLNQDYVKEAVGAEVDHYESCNFDINRNFLFAGDWMKPYHTAVTDLLNQDLPILVYAGDKDFICNWLGNKAWTDVLPWKYDEEFASQKVRNWTASITDEVAGEVKSYKHFTYLRVFNGGHMVPFDVPENALSMVNEWIHGGFSL		Km [11]: 85 µM; kcat [11]: 25 s⁻¹; kcat/Km [11]: 300000 M⁻¹ s⁻¹
